These results are taken from PMC6582324 (Nucleic Acids Research, 2019).

The labels stand for the following.
T1: SigI1C K209E/R217E (Clostridium thermocellum ATCC 27405, UniProt A3DBH0 141-249, K209E;R217E)
T1 sequence: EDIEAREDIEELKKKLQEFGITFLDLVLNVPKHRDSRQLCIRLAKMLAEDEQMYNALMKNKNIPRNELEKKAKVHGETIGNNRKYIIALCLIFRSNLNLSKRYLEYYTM

T2: SigI1C (Clostridium thermocellum ATCC 27405, UniProt A3DBH0 141-249)
T2 sequence: T1 sequence with E69K, E77R

T3: SigI1C, C-terminal domain of σI factor SigI1 (C. thermocellum ATCC 27405, UniProt A3DBH0 141-249)
T3 sequence: T1 sequence with E69K, E77R

B1: PSigI1 -35 region (dsDNA)
DNA 1: ATCGATAATATACACAAAAA
DNA 2: TTTTTGTGTATATTATCGAT
B2: RsgI1N, N-terminal cytoplasmic inhibitory domain of anti-σI factor RsgI1, wild type (domain or fragment, C. thermocellum ATCC 27405)
chain: MNRLGIIYEIQGMKAVVLTSEGEFLIIRRRKDMKVGQQVSFENEDIYNVRGK
B3: RsgI1N Y8L-E9K (domain or fragment, C. thermocellum ATCC 27405)
chain: B2 chain with Y8L, E9K
B4: RsgI1N V35K (domain or fragment, C. thermocellum ATCC 27405)
chain: B2 chain with V35K
B5: RsgI1N E9K (domain or fragment, C. thermocellum ATCC 27405)
chain: B2 chain with E9K
B6: RsgI1N Y8L-V35R (domain or fragment, C. thermocellum ATCC 27405)
chain: B2 chain with Y8L, V35R
B7: RsgI1N V35I (domain or fragment, C. thermocellum ATCC 27405)
chain: B2 chain with V35I
B8: RsgI1N L18I (domain or fragment, C. thermocellum ATCC 27405)
chain: B2 chain with L18I
B9: RsgI1N Y8L-E9K-V35R (domain or fragment, C. thermocellum ATCC 27405)
chain: B2 chain with Y8L, E9K, V35R
B10: RsgI1N V16K (domain or fragment, C. thermocellum ATCC 27405)
chain: B2 chain with V16K
B11: RsgI1N E9K-E23K (domain or fragment, C. thermocellum ATCC 27405)
chain: B2 chain with E9K, E23K
B12: RsgI1N Y8L (domain or fragment, C. thermocellum ATCC 27405)
chain: B2 chain with Y8L
B13: RsgI1N E21K (domain or fragment, C. thermocellum ATCC 27405)
chain: B2 chain with E21K
B14: RsgI1N V16I (domain or fragment, C. thermocellum ATCC 27405)
chain: B2 chain with V16I
B15: RsgI1N E9K-E21K (domain or fragment, C. thermocellum ATCC 27405)
chain: B2 chain with E9K, E21K
B16: RsgI1N Y8I (domain or fragment, C. thermocellum ATCC 27405)
chain: B2 chain with Y8I
B17: RsgI1N L18F (domain or fragment, C. thermocellum ATCC 27405)
chain: B2 chain with L18F
B18: RsgI1N F24I (domain or fragment, C. thermocellum ATCC 27405)
chain: B2 chain with F24I
B19: RsgI1N E9G (domain or fragment, C. thermocellum ATCC 27405)
chain: B2 chain with E9G
B20: RsgI1N E23K (domain or fragment, C. thermocellum ATCC 27405)
chain: B2 chain with E23K

Changes are numbered by the printed parent chain. Numbers in names are those of the source.

The target in one data set is T1, SigI1C K209E/R217E. In words: EMSA. (A gel shift assay detects complexes by their altered migration in electrophoresis.)
Turning to B1, the binding result is listed as “no binding”.

For another data set, the target named is T2, SigI1C. In words: EMSA.
As to B1, the binding result is “binds”.

Another data set deals with T3, SigI1C, C-terminal domain of σI factor …. Briefly: SPR. (SPR reads the build-up and loss of mass on a sensor chip optically.)
With B2, the dissociation constant Kd is 0.011 nM. As for B3, binding was characterised by a dissociation constant (Kd) of 0.16 nM. Regarding B4, the Kd was found to be 0.0065 nM. B5 had a Kd of 0.097 nM. With B6, the Kd was found to be 0.04 nM.

Take B7: the Kd came to 0.023 nM.

On to B8, for which the Kd came out at 0.67 nM.

Molecule B9 came in with an equilibrium dissociation constant (Kd) of 9.3 nM. In turn, B10 yielded a Kd of 2.4 nM.

Regarding B11, the Kd turned out to be 6.4 nM. Compared with the last molecule, the Kd is about 2.7-fold higher. As to B12, binding was characterised by a dissociation constant (Kd) of 0.084 nM.

For B13, the Kd worked out at 0.016 nM. B14 gave a Kd of 0.36 nM. Against the preceding molecule, the Kd is about 22-fold higher. On the same count and under the same terms, the value for B15 was 0.02 nM.

Regarding B16, the Kd was 0.45 nM. The molecule B17 came in with a Kd of 0.0031 nM.

B18 showed a Kd of 0.19 nM. Consider B19, for which the Kd stood at 0.071 nM. Compared with the last molecule, the Kd is about 2.7-fold lower. Take B20: the Kd turned out to be 0.36 nM.

What is called Kd is a measure of binding affinity in units of concentration.
